The target in assay [1] is T1, human CD3, endogenous on Jurkat cells and on activated human PBMC (human, UniProt P07766 23-207; P04234 22-171).
T1 construct: whole, on cells; CD3 complex as it stands on T cells
Description: FACS, Jurkat cells. In general terms: Flow cytometry measures light scatter and fluorescence of single cells or particles in a stream.

The target in assay [2] is T1, human CD3, endogenous on Jurkat cells …. In words: FACS, activated human PBMC.
For assay [3], the target named is T2, monkey CD3, on activated monkey PBMC (monkey).
T2 construct: whole, on cells
Description: FACS, activated monkey PBMC.

The target in assay [4] is T3, human GPRC5D, expressed on cells (human, UniProt Q9NZD1 1-345).
T3 construct: whole, on cells; Overexpressed on CHOK1 cells; also called CHOK1-human GPRC5D cells
In words: FACS, CHOK1-human GPRC5D cells. The protocol:
(§1) Flp-inCHO-human BCMA cells and CHOK1-human GPRC5D cells were scale-up cultured in T-75 cell culture flask to the logarithmic growth phase, respectively, and the cells were pipetted to obtain a single cell suspension. After the cells were counted and centrifuged, the cell precipitate was resuspended to 2×10⁶ cells per milliliter with a FACS buffer (PBS+2% fetal bovine serum). The suspension was added to a 96-well FACS reaction plate at 50 μl/well. 8 concentrations of the anti-BCMA-GPRC5D-CD3 antibodies or control antibodies were added at 50 μl/well, wherein gradient dilution was performed at a dilution ratio of 5 from a concentration of 100 nM. The cells were incubated at 4° C. for 1 h. The obtained mixture was centrifuged and washed 3 times with a PBS buffer. […] The obtained mixture was centrifuged and washed 3 times with a PBS buffer. 100 μl of the mixture was taken for detection and result analysis by FACS (FACS Canto™, purchased from BD Company). Data analysis was performed by software (FlowJo) to obtain the mean fluorescence intensity (MFI) of the cells. Then, a software (GraphPad Prism8) was used for analysis, data fitting and EC50 calculation.

Assay [5] has as its target T4, human BCMA (B cell maturation antigen), expressed on cells (human, UniProt Q02223 1-184).
T4 construct: whole, on cells; Overexpressed on Flp-in CHO cells; also called Flp-inCHO-human BCMA cells; CD269
T4 sequence (looked up): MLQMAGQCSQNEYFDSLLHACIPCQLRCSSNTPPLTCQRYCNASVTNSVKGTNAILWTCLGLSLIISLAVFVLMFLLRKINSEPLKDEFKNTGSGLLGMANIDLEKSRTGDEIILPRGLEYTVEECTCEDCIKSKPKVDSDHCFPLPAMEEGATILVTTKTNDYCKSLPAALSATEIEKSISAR
Description: FACS, Flp-inCHO-human BCMA cells. As for the experimental part: as §1

T2 sequence (Q95LI5 22-198): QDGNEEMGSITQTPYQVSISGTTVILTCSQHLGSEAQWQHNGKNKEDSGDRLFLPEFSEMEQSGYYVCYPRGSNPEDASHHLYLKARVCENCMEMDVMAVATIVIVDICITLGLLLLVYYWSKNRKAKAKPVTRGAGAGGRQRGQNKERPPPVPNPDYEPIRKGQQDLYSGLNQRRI
T1 sequence (P07766 23-207, chain 1 of 2): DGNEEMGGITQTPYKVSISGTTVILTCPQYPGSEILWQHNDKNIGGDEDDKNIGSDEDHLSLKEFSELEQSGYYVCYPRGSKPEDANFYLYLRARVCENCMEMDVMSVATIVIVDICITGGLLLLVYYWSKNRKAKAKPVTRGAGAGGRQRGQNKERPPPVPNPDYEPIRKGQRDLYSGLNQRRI
T1 sequence (P04234 22-171, chain 2 of 2): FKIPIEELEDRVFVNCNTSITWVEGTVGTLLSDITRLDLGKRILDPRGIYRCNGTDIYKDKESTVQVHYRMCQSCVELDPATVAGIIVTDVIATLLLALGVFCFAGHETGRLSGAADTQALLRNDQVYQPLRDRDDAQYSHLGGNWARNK
T3 sequence (Q9NZD1 whole entry): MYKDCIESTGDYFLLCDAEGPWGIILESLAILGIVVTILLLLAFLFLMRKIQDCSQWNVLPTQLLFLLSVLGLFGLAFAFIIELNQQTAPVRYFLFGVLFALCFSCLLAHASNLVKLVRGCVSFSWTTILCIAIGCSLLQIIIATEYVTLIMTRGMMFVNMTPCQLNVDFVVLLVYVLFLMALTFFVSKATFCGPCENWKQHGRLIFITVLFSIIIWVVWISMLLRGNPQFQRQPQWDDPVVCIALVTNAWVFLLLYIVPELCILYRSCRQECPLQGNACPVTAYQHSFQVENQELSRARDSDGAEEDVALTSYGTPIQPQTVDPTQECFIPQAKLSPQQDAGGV

B1: Tri-62 anti-BCMA-GPRC5D-CD3 trispecific antibody (other)
VH 1: EGQMVQSGAEVKKPGSSVKVSCKASGYMFTDHTFHWVRQAPGQGLEWMGYIYPRDQNTKYNEKFKGRVTITADKSTSTAYMELSSLRSEDTAVYYCARAGYYGSSHAMDYWGQGTTVTVSS
VL 1: DIQMTQSPSSLSASVGDRVTITCKASQDVSTAVAWYQQKPGKSPRLLIYSASSRYTGVPSRFSGSGSGTDFTFTISSLQPEDIATYYCQQLYSTPWTFGGGTKVEIK
VH 2: EVQLVQSGAEVKKPGSSVKVSCKASGYTFTSYGISWVRQAPGQGLEWMGEIYPRSGNTYYNEKFKGRVTLTADKSTSTAYMELSSLRSEDTAVYYCARGRAYGRNYPMDYWGQGTTVTVSS
VL 2: EIVLTQSPATLSLSPGERATLSCRASQSIGTSIHWYQQKPGQSPRLLIKYASESISGIPARFSGSGSGTDFTLTISSLEPEDFAVYYCQQSNSWPYTFGGGTKVEIK
VH 3: EVQLVESGGGVVQPGRSLRLSCAASGFTFTDYYMSWVRQAPGKGLEWVAMSRNKAKGHTIEYSSSVKGRFTISRDNSKNTLYLQMNSLRAEDTAVYYCARDTYESYDGYFDVWGQGTTVTVSS
VL 3: DIVMTQSPDSLAVSLGERATINCKSSQSLFNSRSRKNYLAWYQQKPGQTPKLLIYWASIRESGVPDRFSGSGSGTDFTLTISSLQAEDVAVYYCKQSYYLYTFGQGTKLEIK
chain 1: ESKYGPPCPPCPAPEAAGGPSVFLFPPKPKDTLMISRTPEVTCVVVDVSQEDPEVQFNWYVDGVEVHNAKTKPREEQFNSTYRVVSVLTVLHQDWLNGKEYKCKVSNKGLPSSIEKTISKAKGQPREPQVYTLPPSQEEMTKNQVSLWCLVKGFYPSDIAVEWESNGQPENNYKTTPPVLDSDGSFFLYSRLTVDKSRWQEGNVFSCSVMHEALHNHYTQKSLSLSLG
chain 2: ESKYGPPCPPCPAPEAAGGPSVFLFPPKPKDTLMISRTPEVTCVVVDVSQEDPEVQFNWYVDGVEVHNAKTKPREEQFNSTYRVVSVLTVLHQDWLNGKEYKCKVSNKGLPSSIEKTISKAKGQPREPQVYTLPPSQEEMTKNQVSLSCAVKGFYPSDIAVEWESNGQPENNYKTTPPVLDSDGSFFLVSRLTVDKSRWQEGNVFSCSVMHEALHNHYTQKSLSLSLG
notes: Trispecific antibody; Asymmetric (purification method B)
As a reminder, the EC50 is the midpoint of the concentration-response curve. As to B1, the figures for the “Maximum mean fluorescence intensity” value in assay [1], in assay [2] and in assay [3] were 462, 452 and 740, respectively. The EC50 in assay [3] worked out at 85.5 nM; in assay [4] it was 0.4 nM; in assay [5] it was 14.5 nM.

B2: Tri-49 anti-BCMA-GPRC5D-CD3 trispecific antibody (other)
VHH: EVQLVESGGGLVQPGGSLRLSCAASESISSIHIMAWYRQAPGKQRELVAGIRNDGSTVYVDSVKGRFTISRDNAKNSLYLQMNSLRAEDTAVYYCNADQGFGSYSEWERRSRWGQGTTVTVSS
VH 1: EVQLVQSGAEVKKPGSSVKVSCKASGYTFTSYGISWVRQAPGQGLEWMGEIYPRSGNTYYNEKFKGRVTLTADKSTSTAYMELSSLRSEDTAVYYCARGRAYGRNYPMDYWGQGTTVTVSS
VL 1: EIVLTQSPATLSLSPGERATLSCRASQSIGTSIHWYQQKPGQSPRLLIKYASESISGIPARFSGSGSGTDFTLTISSLEPEDFAVYYCQQSNSWPYTFGGGTKVEIK
VH 2: EVQLVESGGGVVQPGRSLRLSCAASGFTFTDYYMSWVRQAPGKGLEWVAMSRNKAKGHTIEYSSSVKGRFTISRDNSKNTLYLQMNSLRAEDTAVYYCARDTYESYDGYFDVWGQGTTVTVSS
VL 2: DIVMTQSPDSLAVSLGERATINCKSSQSLFNSRSRKNYLAWYQQKPGQTPKLLIYWASIRESGVPDRFSGSGSGTDFTLTISSLQAEDVAVYYCKQSYYLYTFGQGTKLEIK
chain 1: ESKYGPPCPPCPAPEAAGGPSVFLFPPKPKDTLMISRTPEVTCVVVDVSQEDPEVQFNWYVDGVEVHNAKTKPREEQFNSTYRVVSVLTVLHQDWLNGKEYKCKVSNKGLPSSIEKTISKAKGQPREPQVYTLPPSQEEMTKNQVSLWCLVKGFYPSDIAVEWESNGQPENNYKTTPPVLDSDGSFFLYSRLTVDKSRWQEGNVFSCSVMHEALHNHYTQKSLSLSLG
chain 2: ESKYGPPCPPCPAPEAAGGPSVFLFPPKPKDTLMISRTPEVTCVVVDVSQEDPEVQFNWYVDGVEVHNAKTKPREEQFNSTYRVVSVLTVLHQDWLNGKEYKCKVSNKGLPSSIEKTISKAKGQPREPQVYTLPPSQEEMTKNQVSLSCAVKGFYPSDIAVEWESNGQPENNYKTTPPVLDSDGSFFLVSRLTVDKSRWQEGNVFSCSVMHEALHNHYTQKSLSLSLG
notes: as for B1
On to B2, for which the values for the EC50 in assay [1], in assay [2] and in assay [3] were 157 nM, 31.8 nM and 59.4 nM, respectively.

B3: Tri-41 anti-BCMA-GPRC5D-CD3 trispecific antibody (other)
VHH: EVQLVESGGGLVQPGGSLRLSCSASGFTLDYYMIGWFRQAPGKEREGLSSISPADGSTYYADSVKGRFTISRDSSKNTVYLQMNSLRAEDTAVYYCAAGNEATISWGFGPWEYDYWGQGTMVTVSS
VH 1: EVQLVQSGAEVKKPGSSVKVSCKASGYTFTSYGISWVRQAPGQGLEWMGEIYPRSGNTYYNEKFKGRVTLTADKSTSTAYMELSSLRSEDTAVYYCARGRAYGRNYPMDYWGQGTTVTVSS
VL 1: EIVLTQSPATLSLSPGERATLSCRASQSIGTSIHWYQQKPGQSPRLLIKYASESISGIPARFSGSGSGTDFTLTISSLEPEDFAVYYCQQSNSWPYTFGGGTKVEIK
VH 2: EVQLVESGGGVVQPGRSLRLSCAASGFTFTDYYMSWVRQAPGKGLEWVAMSRNKAKGHTIEYSSSVKGRFTISRDNSKNTLYLQMNSLRAEDTAVYYCARDTYESYDGYFDVWGQGTTVTVSS
VL 2: DIVMTQSPDSLAVSLGERATINCKSSQSLFNSRSRKNYLAWYQQKPGQTPKLLIYWASIRESGVPDRFSGSGSGTDFTLTISSLQAEDVAVYYCKQSYYLYTFGQGTKLEIK
chain 1: EPKSSDKTHTCPPCPAPEAAGGPSVFLFPPKPKDTLMISRTPEVTCVVVDVSHEDPEVKFNWYVDGVEVHNAKTKPREEQYNSTYRVVSVLTVLHQDWLNGKEYKCKVSNKALPAPIEKTISKAKGQPREPQVYTLPPSREEMTKNQVSLWCLVKGFYPSDIAVEWESNGQPENNYKTTPPVLDSDGSFFLYSKLTVDKSRWQQGNVFSCSVMHEALHNHYTQKSLSLSPG
chain 2: EPKSSDKTHTCPPCPAPEAAGGPSVFLFPPKPKDTLMISRTPEVTCVVVDVSHEDPEVKFNWYVDGVEVHNAKTKPREEQYNSTYRVVSVLTVLHQDWLNGKEYKCKVSNKALPAPIEKTISKAKGQPREPQVYTLPPSREEMTKNQVSLSCAVKGFYPSDIAVEWESNGQPENNYKTTPPVLDSDGSFFLVSKLTVDKSRWQQGNVFSCSVMHEALHNHYTQKSLSLSPG
notes: as for B1
B3: the values for the EC50 in assay [4] and in assay [5] were 4.3 nM and 1.52 nM, respectively.

(Values after patent US20260265390A1 (SHANDONG SIMCERE BIOPHARMACEUTICAL, published 2026).)
